Here are results for eight sequences from the Immune Epitope Database (IEDB).

Assay [1] deals with HLA-A*02:01. The assay can be described thus: IEDB peptide-MHC binding, cellular MHC/competitive/fluorescence; ≥ and ≤ were set here for values at or beyond the usual limits of such assays.
Assay [2] concerns the target HLA-A*01:01. Kind of assay: IEDB peptide-MHC binding, purified MHC/competitive/fluorescence; ≥ and ≤ were set here for values at or beyond the usual limits of such assays.
Assay [3] addresses HLA-A*02:01. The assay is described as above.
Assay [4] deals with HLA-A*01:01. Kind of assay: IEDB peptide-MHC binding, purified MHC/direct/fluorescence; filed as Kd, often an IC50 or EC50 that approximates it; ≥ and ≤ were set here for values at or beyond the usual limits of such assays.
In another assay the target is HLA-A*80:01. The description is as above. The following applies: source organism: Francisella tularensis subsp. holarctica LVS.
In another assay the target is HLA-C*08:02. The description is as above. Conditions: source organism: Francisella tularensis subsp. tularensis FSC198.
The next assay addresses HLA-B*15:42. Kind of assay: IEDB peptide-MHC binding, purified MHC/competitive/fluorescence; filed as Kd, often an IC50 or EC50 that approximates it; ≥ and ≤ were set here for values at or beyond the usual limits of such assays. Conditions: source organism: Francisella tularensis subsp. tularensis FSC198.
Another assay addresses HLA-B*45:06. Described as above. The following applies: source organism: Francisella tularensis subsp. tularensis FSC198.
For the next assay, the target named is HLA-B*83:01. The description is as above. Conditions: source organism: Francisella tularensis subsp. tularensis FSC198.
The next assay deals with HLA-C*04:01. The assay is described as above. The following applies: source organism: Francisella tularensis subsp. tularensis FSC198.
Another assay addresses HLA-C*14:02. The assay is described as above. Conditions: source organism: Francisella tularensis subsp. tularensis FSC198.
For assay [5], the target named is HLA-A*11:01. The assay can be described thus: IEDB peptide-MHC binding, purified MHC/direct/fluorescence; filed as Kd, often an IC50 or EC50 that approximates it; ≥ and ≤ were set here for values at or beyond the usual limits of such assays.
In another assay the target is HLA-A*31:01. The assay is described as above.
For another assay, the target named is HLA-B*07:02. Described as above.
Another assay deals with HLA-B*08:01. The assay is described as above.
Assay [6] concerns the target HLA-B*15:01. The description is as above.
The target of the next assay is HLA-B*15:09. The description is as above. The following applies: source organism: Influenza A virus(A/swine/Shandong/fNY/2003(H9N2)).
The target of the next assay is HLA-B*18:01. Described as above.
The next assay has as its target HLA-B*39:01. The assay is described as above. Conditions: source organism: Influenza A virus(A/swine/Shandong/fNY/2003(H9N2)).
Another assay deals with HLA-B*57:01. The description is as above.
For a further assay, the target named is HLA-B*58:01. Described as above.
Assay [7] deals with HLA-A*02:01. The assay can be described thus: IEDB peptide-MHC binding, purified MHC/competitive/fluorescence; filed as Kd, often an IC50 or EC50 that approximates it; ≥ and ≤ were set here for values at or beyond the usual limits of such assays. Conditions: source organism: Influenza A virus H3N2.
The target in another assay is HLA-A*02:03. The assay is described as above. Conditions: source organism: Influenza A virus H3N2.
A further assay addresses HLA-A*02:06. Described as above. The following applies: source organism: Influenza A virus H3N2.
In assay [8] the target is HLA-A*68:02. The assay is described as above. The following applies: source organism: Influenza A virus H3N2.
Assay [9] concerns the target HLA-A*02:01. The assay can be described thus: IEDB peptide-MHC binding, purified MHC/direct/fluorescence; filed as Kd, often an IC50 or EC50 that approximates it; ≥ and ≤ were set here for values at or beyond the usual limits of such assays.
The target in assay [10] is HLA-A*03:01. The description is as above.
Assay [11] deals with HLA-A*68:02. The assay is described as above.
A further assay deals with HLA-A*69:01. The assay is described as above. Conditions: source organism: Campylobacter jejuni RM1221.
The target of another assay is HLA-B*15:17. The assay is described as above.
A further assay deals with HLA-B*27:05. Described as above.
For another assay, the target named is HLA-B*48:01. The assay is described as above.
The next assay has as its target HLA-B*73:01. Described as above. Conditions: source organism: Campylobacter jejuni RM1221.
Assay [12] has as its target HLA-A*11:01. The assay can be described thus: IEDB peptide-MHC binding, purified MHC/competitive/fluorescence; filed as Kd, often an IC50 or EC50 that approximates it; ≥ and ≤ were set here for values at or beyond the usual limits of such assays. The following applies: source organism: Campylobacter jejuni subsp. jejuni NCTC 11168 = ATCC 700819.
Assay [13] addresses HLA-A*03:01. Kind of assay: IEDB peptide-MHC binding, purified MHC/competitive/fluorescence; ≥ and ≤ were set here for values at or beyond the usual limits of such assays. Conditions: source organism: Zaire ebolavirus.
For assay [14], the target named is HLA-A*11:01. Described as above. Conditions: source organism: Zaire ebolavirus.
In a further assay the target is HLA-A*24:02. Described as above. The following applies: source organism: Zaire ebolavirus.
Assay [15] concerns the target HLA-B*15:01. The description is as above. The following applies: source organism: Zaire ebolavirus.
For another assay, the target named is HLA-B*08:02. Kind of assay: IEDB peptide-MHC binding, purified MHC/direct/fluorescence; filed as Kd, often an IC50 or EC50 that approximates it; ≥ and ≤ were set here for values at or beyond the usual limits of such assays. Conditions: source organism: Ravn virus - Ravn, Kenya, 1987.
The target in the next assay is HLA-B*40:01. The assay is described as above. Conditions: source organism: Marburg virus - Musoke, Kenya, 1980.
Another assay deals with HLA-B*46:01. The assay is described as above. The following applies: source organism: Marburg virus - Musoke, Kenya, 1980.
The next assay addresses HLA-A*26:03. Kind of assay: IEDB peptide-MHC binding, purified MHC/competitive/fluorescence; filed as Kd, often an IC50 or EC50 that approximates it; ≥ and ≤ were set here for values at or beyond the usual limits of such assays. Conditions: source organism: Orthomarburgvirus marburgense.
Setting [16] is: source organism: Influenza A virus (A/equine/New York/1/1999(H3N8)).
Setting [17] is: source organism: Campylobacter jejuni RM1221.
[18] abbreviates: source organism: Zaire ebolavirus.
The mark [19] stands for this setting: source organism: Marburg virus - Musoke, Kenya, 1980.

Broadly, the IC50 is the midpoint of a concentration-inhibition curve. Low values mean higher potency, high ones lower potency. In the case of SLLDKIIGA, the IC50 with HLA-A*02:01 [1] (source organism: Homo sapiens) is 15 µM.

For the sequence KIDSMFLMT, the figures for the IC50 with HLA-A*01:01 [2] (source organism: Variola virus) and in the assay with HLA-A*02:01 [3] (source organism: Variola virus) were at least 104 µM and 565 nM, respectively.

For orientation: Kd means the free concentration of one partner at which half of the binding sites on the other are occupied at equilibrium, for simple one-to-one binding. A higher Kd goes with weaker binding. Turning to YTDKIAMSY, the Kd was at most 0.001 µM with HLA-A*01:01 [4] (source organism: Francisella tularensis subsp. holarctica LVS); 0.5 nM with HLA-A*80:01; 651 nM in the assay with HLA-C*08:02; at least 5 µM with HLA-B*15:42; at least 5 µM with HLA-B*45:06; at least 5 µM with HLA-B*83:01. Also, the Kd with HLA-C*04:01 was at least 5 µM; in the assay with HLA-C*14:02, 68.4 nM.

For ELVRKTRFL, the Kd with HLA-A*01:01 [4] (setting [16]) was at least 20 µM; with HLA-A*11:01 [5] (setting [16]) it was at least 20000 nM; with HLA-A*31:01 (setting [16]), at least 20 µM; in the assay with HLA-B*07:02 (setting [16]), at least 20 µM; with HLA-B*08:01 (setting [16]), 1620 nM; with HLA-B*15:01 [6] (setting [16]) it was at least 20 µM. Besides, the Kd in the assay with HLA-B*15:09, in the assay with HLA-B*18:01 (setting [16]), with HLA-B*39:01, with HLA-B*57:01 (setting [16]), with HLA-B*58:01 (setting [16]) and with HLA-A*02:01 [7] was at least 20 µM each time. For the same sequence, the Kd was at least 20 µM with HLA-A*02:03, 2880 nM with HLA-A*02:06 and 1430 nM in the assay with HLA-A*68:02 [8].

AKYEICLEK: the Kd is at least 20 µM with HLA-A*01:01 [4] (setting [17]); at least 20 µM with HLA-A*02:01 [9] (setting [17]); at least 20000 nM with HLA-A*03:01 [10] (setting [17]); at least 20 µM with HLA-A*31:01 (setting [17]); at least 20 µM with HLA-A*68:02 [11] (setting [17]); at least 20 µM with HLA-A*69:01. Besides, the Kd with HLA-B*07:02 (setting [17]) was at least 20 µM; in the assay with HLA-B*08:01 (source organism: Campylobacter jejuni subsp. jejuni 81-176) it was at least 20000 nM; with HLA-B*15:01 [6] (setting [17]), at least 20 µM; with HLA-B*15:17 (setting [17]), at least 20 µM; with HLA-B*18:01 (setting [17]), at least 20 µM; with HLA-B*27:05 (setting [17]) it was at least 20 µM. In addition, the Kd with HLA-B*48:01 (setting [17]), in the assay with HLA-B*57:01 (setting [17]), with HLA-B*58:01 (setting [17]), with HLA-B*73:01 and in the assay with HLA-A*11:01 [12] was at least 20 µM throughout.

As for SLPKTSGHY, the IC50 was 37.8 µM with HLA-A*01:01 [2] (setting [18]); at least 368000 nM with HLA-A*02:01 [3] (setting [18]); at least 91.7 µM with HLA-A*03:01 [13]; at least 105 µM with HLA-A*11:01 [14]; 47.5 µM with HLA-A*24:02; 4.02 µM with HLA-B*15:01 [15].

With YMDDLYVGSD, the IC50 with HLA-A*02:01 [1] (source organism: Human immunodeficiency virus 1) turned out to be 8 µM.

Consider IISTNTLGK, for which the Kd with HLA-A*01:01 [4] (setting [19]) is at least 20 µM; with HLA-A*02:01 [9] (setting [19]) it was at least 20 µM; in the assay with HLA-A*03:01 [10] (setting [19]), 250 nM; with HLA-A*11:01 [5] (setting [19]) it was 129 nM; with HLA-A*31:01 (setting [19]), at least 20 µM; with HLA-A*68:02 [11] (setting [19]) it was at least 20 µM. Besides, the Kd in the assay with HLA-B*07:02 (setting [19]), with HLA-B*08:02, with HLA-B*15:01 [6] (setting [19]), with HLA-B*15:17 (setting [19]), in the assay with HLA-B*18:01 (setting [19]) and with HLA-B*27:05 (setting [19]) was at least 20 µM throughout. Further, the Kd with HLA-B*40:01, with HLA-B*46:01, with HLA-B*48:01 (setting [19]), with HLA-B*57:01 (setting [19]), with HLA-B*58:01 (setting [19]) and with HLA-A*26:03 was at least 20 µM each time.
